{"source": "patent US12358959B2", "about": "“Compositions and methods for oligodendrocyte development” (CHILDREN'S MEDICAL CENTER CORPORATION, priority 2016, dated 2025)", "key": {"GPR56^N": {"molecular_target": "T1, GPR56^N (Mus musculus, UniProt Q8K209)", "T1 construct": "Using the soluble N-terminal fragment of GPR56 (GPR56^N); made in house", "T1 sequence (Q8K209 26-382 limits assumed)": "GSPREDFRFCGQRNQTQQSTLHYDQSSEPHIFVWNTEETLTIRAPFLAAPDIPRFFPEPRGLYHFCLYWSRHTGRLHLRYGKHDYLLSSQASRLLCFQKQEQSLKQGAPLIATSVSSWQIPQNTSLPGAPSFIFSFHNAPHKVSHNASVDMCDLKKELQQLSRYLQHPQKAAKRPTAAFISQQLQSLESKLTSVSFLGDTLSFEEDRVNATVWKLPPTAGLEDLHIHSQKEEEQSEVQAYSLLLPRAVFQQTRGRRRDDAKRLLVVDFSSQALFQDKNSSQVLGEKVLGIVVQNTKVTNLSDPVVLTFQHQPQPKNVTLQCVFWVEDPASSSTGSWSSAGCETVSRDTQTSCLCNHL", "test": "In vitro biotinylation/proteomics pull-down from mixed glial cell lysate with mass spectrometry", "conditions": "peptide sequences specific for binding to GPR56^N", "text": "To identify the ligand of GPR56 in OPCs, an in vitro biotinylation/proteomics approach was employed using single-step capture on streptavidin beads to purify the binding partner(s) of GPR56 (FIGS. 2A-2B). Proteins with more than five identified tryptic peptides in the Mass Spectrometry (MS) output from three independent experiments are listed at Table 1.\n(§1) GPR56^N and GPR56^Ndel fusions proteins with either mFc or hFc tag were generated as previously described (Luo et al. Proc Natl Acad Sci USA 108, 12925-12930, 2011). BirA enzyme was used to in vitro biotinylate GPR56^N-mFc-biotag protein as previously described (De Laurenzi and Melino Mol Cell Biol 21, 148-155, 2001). Mixed glial cell lysate was incubated with biotinylated GPR56^N protein in lysis buffer [20 mM Hepes (pH 7.3), 150 mM NaCl, and 5 mM MgCl2] with protein inhibitor mixture (Roche Molecular Biochemicals) and 1% Brij 96 (Fluka). Streptavidin beads (Sigma) were used to affinity purify immunocomplexes. GPR56-associated proteins were eluted in 2×SDS loading buffer, subjected to SDS/PAGE. The whole lane was used for MS at the Taplin Biological Mass Spectrometry at Havard Medical School. MS data were searched against the mouse International Protein Index (IPI mouse 339) database using the protein identification software Mascot (v2.2.04, Matrix Sciences) (Luo et al. Proc Natl Acad Sci USA 108, 12925-12930, 2011).\nas §1, with “al.,” for “al.”, “(Stacey et al., J” for “(De Laurenzi and Melino Mol Cell”, “Chem 277, 29283-29293, 2002).” for “21, 148-155, 2001).”, “(20” for “[20”, “[pH 7.3],” for “(pH 7.3),”, “MgCl2)” for “MgCl2]”"}, "[1]": {"molecular_target": "Plectin (Plec), mouse, endogenous (mixed glial cell lysate) (mouse) (UniProt Q9QXS1)", "test": "streptavidin pull-down of biotinylated GPR56^N-mFc from mixed glial cell lysate, tryptic peptide mass spectrometry"}, "[2]": {"molecular_target": "Transglutaminase 2 (Tgm2), mouse, endogenous (mixed glial cell lysate / microglia-derived) (mouse) (UniProt P21981)", "sequence (P21981 2-686 limits assumed)": "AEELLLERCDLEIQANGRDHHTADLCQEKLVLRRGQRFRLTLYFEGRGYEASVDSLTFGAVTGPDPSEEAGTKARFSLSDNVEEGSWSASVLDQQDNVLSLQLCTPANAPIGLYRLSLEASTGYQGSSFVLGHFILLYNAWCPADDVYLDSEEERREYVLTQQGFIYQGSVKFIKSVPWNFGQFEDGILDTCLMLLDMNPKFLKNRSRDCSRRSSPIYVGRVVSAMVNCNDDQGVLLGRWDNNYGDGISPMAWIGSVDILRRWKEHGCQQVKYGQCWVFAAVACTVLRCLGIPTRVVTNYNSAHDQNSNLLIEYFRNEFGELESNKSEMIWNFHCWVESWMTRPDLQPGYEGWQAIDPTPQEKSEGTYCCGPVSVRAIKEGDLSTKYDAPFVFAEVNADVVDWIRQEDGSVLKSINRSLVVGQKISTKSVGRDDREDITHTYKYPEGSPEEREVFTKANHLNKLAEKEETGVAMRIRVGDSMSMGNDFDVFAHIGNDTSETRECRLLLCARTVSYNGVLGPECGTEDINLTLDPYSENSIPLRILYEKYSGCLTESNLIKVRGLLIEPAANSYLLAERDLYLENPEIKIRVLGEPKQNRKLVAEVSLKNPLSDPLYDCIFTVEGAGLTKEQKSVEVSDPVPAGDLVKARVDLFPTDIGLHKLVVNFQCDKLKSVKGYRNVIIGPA", "test": "streptavidin pull-down of biotinylated GPR56^N-mFc from mixed glial cell lysate, tryptic peptide mass spectrometry"}, "[3]": {"tested_on": "oligodendrocyte precursors (OPCs)", "test": "OPC proliferation on laminin-111 or fibronectin with recombinant TG2", "type": "cell-based, mouse", "text": "P=0.70 (control vs. TG2-W241A); **P=0.0088 (TG2 vs. TG2-W241A). […] FIG. 16D depicts a Western blot of active RhoA (top panel) and total RhoA (bottom panel) in the corpus callosum (CC) of Tgm2^+/+ and Tgm2^−/− mice. FIG. 16E is a graph showing that the relative level of active RhoA to total RhoA was diminished in the CC of Tgm2^−/− mice compared to […]. *P=0.0207, unpaired t-test, N=3 per genotype. FIG. 16F depicts a Western blot of GPR56^N in the supernatant of HEK 293T cell culture after exposed to either TG2 or TG2+laminin-111 (top panel), GTP-RhoA (middle panel) and total RhoA (lower panel) in HEK 293T cell pellet exposed to either TG2 or TG2+laminin-111. FIG. 16G is a graph showing that released GPR56 NTF was increased in the presence of both TG2 and laminin-111. ***P=0.0002; One-way ANOVA followed by Tukey post-hoc test, F (2,6)=49.66, n.s. P=0.95 (control vs. TG2); ***P=0.0003 (control vs. TG2+laminin-111); ***P=0.0004 (TG2 vs. TG2+laminin-111); N=3 per treatment group. FIG. 16H is a graph showing that the relative level of GTP-RhoA to total RhoA was increased in the presence of both TG2 and laminin-111, corresponding to the increased GPR56 NTF in the supernatant. **P=0.0028; One-way ANOVA followed by Tukey post-hoc test, F (2,6)=18.19, n.s. P=0.75 (control vs. TG2); **P=0.0035 (control vs. TG2+laminin-111); **P=0.0071 (TG2 vs. TG2+laminin-111) N=3 per treatment group. Error bars are mean±s.e.m in FIGS. 16E, 16G, and 16H.\nTo establish conditions for mechanistic investigation of the function of TG2 on OPC GPR56 during myelination and remyelination, in vitro experiments were performed with wt and Gpr56^−/− oligodendrocyte precursors (OPCs) and human recombinant TG2. […] TG2 is an extracellular protein with intrinsic transamidation activity, capable of cross-linking ECM proteins, including laminin-111 (Aeschlimann et al., J Biol Chem 267, 11316-11321, 1992; Belkin, FEBS J 278, 4704-4716, 2011). […] To confirm that TG2 regulates OPC proliferation in a GPR56-dependent manner, OPCs derived from P5 Gpr56^+/+ or Gpr56^−/− pups were cultured in the presence of laminin-111, with or without recombinant TG2. TG2-associated proliferation was attenuated in Gpr56^−/− OPCs (FIG. 16C), further supporting a GPR56-dependent TG2 function on OPC proliferation.\nOligodendrocyte precursor cells (OPCs) were isolated from mixed male and female P5-8 Gpr56^+/+ or Gpr56^−/− mouse forebrains as previously described (Wang et al., Neuron 29, 603-614, 2001; Watkins et al., Neuron 60, 555-569, 2008). Briefly, OPCs were purified by negatively selecting with mouse anti-Thy 1.2 (Serotec, Cat #MCA02R) and mouse anti-GalC (Millipore, Cat #MAB342), followed by mouse anti-04 (04 hybridoma supernatant) for positive selection. After releasing OPCs from the 04 plate by trypsinization, cells were resuspended in proliferation media containing PDGF-AA and NT-3 (PreproTech). OPCs were plated on coverslips coated with poly-D-lysine before coating with laminin I (R&D Systems, Cat #3400-010-01) or fibronectin (Millipore, Cat #341668) as previously described (Dugas et al., J Neurosci 26, 10967-10983, 2006). After 24 hr, TG2 (2 nM) was added to the cultures and incubated for an additional 24 hr before fixation with 4% PFA and staining for PDGFRα and Ki67."}}, "data": [{"molecule": "Plectin (Plec): protein from mixed glial cell lysate purified with GPR56^N", "values": [{"measurement": "Peptide Number (Exp1)", "setting": "GPR56^N; experiment 1", "result": 21}, {"measurement": "Peptide Number (Exp2)", "setting": "GPR56^N; experiment 2", "result": 22}, {"measurement": "Peptide Number (Exp3)", "setting": "GPR56^N; experiment 3", "result": 23}]}, {"molecule": "biotinylated GPR56^N-mFc-biotag protein (Fc fusion)", "values": [{"measurement": "Peptide Number (Exp1)", "setting": "[1]", "result": 21, "unit": "peptides"}, {"measurement": "Peptide Number (Exp2)", "setting": "[1]", "result": 22, "unit": "peptides"}, {"measurement": "Peptide Number (Exp3)", "setting": "[1]", "result": 23, "unit": "peptides"}, {"measurement": "Peptide Number (Exp1)", "setting": "[2]", "result": 19, "unit": "peptides"}, {"measurement": "Peptide Number (Exp2)", "setting": "[2]", "result": 20, "unit": "peptides"}, {"measurement": "Peptide Number (Exp3)", "setting": "[2]", "result": 17, "unit": "peptides"}]}, {"molecule": "fibronectin [reference compound]", "values": [{"measurement": "OPC proliferation", "setting": "[3]; wt OPCs, fibronectin as specificity control in place of laminin-111, with recombinant TG2", "result": "inert"}]}, {"molecule": "TG2-W241A: transamidation-inactive, enzymatic dead mutant TG2 protein (protein) MAEELVLERCDLELETNGRDHHTADLCREKLVVRRGQPFWLTLHFEGRNYEASVDSLTFSVVTGPAPSQEAGTKARFPLRDAVEEGDWTATVVDQQDCTLSLQLTTPANAPIGLYRLSLEASTGYQGSSFVLGHFILLFNAWCPADAVYLDSEEERQEYVLTQQGFIYQGSAKFIKNIPWNFGQFEDGILDICLILLDVNPKFLKNAGRDCSRRSSPVYVGRVVSGMVNCNDDQGVLLGRADNNYGDGVSPMSWIGSVDILRRWKNHGCQRVKYGQCWVFAAVACTVLRCLGIPTRVVTNYNSAHDQNSNLLIEYFRNEFGEIQGDKSEMIWNFHCWVESWMTRPDLQPGYEGWQALDPTPQEKSEGTYCCGPVPVRAIKEGDLSTKYDAPFVFAEVNADVVDWIQQDDGSVHKSINRSLIVGLKISTKSVGRDEREDITHTYKYPEGSSEEREAFTRANHLNKLAEKEETGMAMRIRVGQSMNMGSDFDVFAHITNNTAEEYVCRLLLCARTVSYNGILGPECGTKYLLNLNLEPFSEKSVPLCILYEKYRDCLTESNLIKVRALLVEPVINSYLLAERDLYLENPEIKIRILGEPKQKRKLVAEVSLQNPLPVALEGCTFTVEGAGLTEEQKTVEIPDPVEAGEEVKVRMDLLPLHMGLHKLVVNFESDKLKAVKGFRNVIIGPA", "values": [{"measurement": "OPC proliferation, wild type TG2 vs enzymatic dead mutant", "setting": "[3]; versus control, One-way ANOVA, Tukey post-hoc", "result": "failed to promote OPC proliferation and n.s."}]}]}
